From patent publication US20240059769A1 (BIOLOJIC DESIGN, published 2024)
Residue numbers refer to the chain shown, from its start. Like-named read-outs stand apart in the source and are kept apart here. Each block holds one binder with its values, some of them ahead of it.

Experiments:
[1] = target: T1, cynomolgus monkey (cyno) TSLP (cynomolgus monkey, UniProt A0A7N9CAT7 29-159); assay: SPR
T1 construct: also called cTSLP; cynomolgus TSLP

[2] = target: T2, recombinant human IL-13 (human, UniProt P35225 35-146); assay: cell-based or functional assay
[3] = target: T3, human TSLP (human, UniProt Q969D9 29-159); assay: cell-based or functional assay
[4] = target: T4, recombinant cynomolgus monkey IL-13 (cynomolgus monkey, UniProt Q0PW92 21-132); assay: SPR
T4 construct: bought; also called rc-IL-13; cIL-13

[5] = target: T2, recombinant human IL-13; assay: cell-based or functional assay; remark: listed apart in the source
[6] = target: T2, recombinant human IL-13; assay: SPR
[7] = target: T3, human TSLP; assay: SPR
[8] = target: T5, hTSLP-His (human, UniProt Q969D9 29-159, limits assumed); assay: competition ELISA, 7 nM TSLP-His pre-incubated with antibody; competitor Tezepelumab coated
T5 construct: bought; also called hTSLP (ACROBiosystems TSP-H52Hb); not shown: His tag

[9] = target: T5, hTSLP-His; assay: cell-based or functional assay
[10] = target: T3, human TSLP; assay: yeast surface display, affinity maturation library
[11] = target: T2, recombinant human IL-13; assay: SPR; remark: listed apart in the source
[12] = target: T3, human TSLP; assay: SPR; remark: listed apart in the source
[13] = target: T6, recombinant human IL-13 (rh-IL-13)-Fc (human, UniProt P35225 35-146, limits assumed); assay: yeast surface display scFv, flow cytometry, 10 nM rh-IL-13-Fc
T6 construct: bought; not shown: human Fc

[14] = target: T7, recombinant human TSLP (hTSLP)-Fc (human, UniProt Q969D9 29-159, limits assumed); assay: yeast surface display, flow cytometry, 10 nM hTSLP-Fc; MFI normalized to expression and to the positive control
T7 construct: not shown: Fc

T1 sequence (A0A7N9CAT7 entry or part of it): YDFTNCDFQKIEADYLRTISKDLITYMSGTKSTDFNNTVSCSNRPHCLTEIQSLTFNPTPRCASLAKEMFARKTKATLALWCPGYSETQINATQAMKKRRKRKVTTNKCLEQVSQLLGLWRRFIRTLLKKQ
T2 sequence (P35225 35-146 limits assumed): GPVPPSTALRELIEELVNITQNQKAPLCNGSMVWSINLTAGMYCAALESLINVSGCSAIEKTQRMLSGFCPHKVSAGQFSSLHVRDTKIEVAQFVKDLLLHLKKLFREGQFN
T6 sequence (P35225 35-146 limits assumed): as above
T4 sequence (Q0PW92 entry or part of it): as the sequence (P35225 35-146 limits assumed) above, with G1S, R10K, M42V, S67N, H83R, L100V counted along it

B1: BDG38.132 (antibody, V domains shown)
VH: QMQLVESGGGVVQPGRSLRLSCAASGFEFRTYGMHWVRQAPGKGLEWVGVIWDDGSNTHYADSVKGRFTITRDNSKNTLNLQMNSLRAEDTAVYYCVRAPQWYLTAEAFDLWGQGTMVTVSS
VL: SYILTQPPSVSVAPGETATITCGGNLIGARLVHWYQQKPGQAPVLVIYDDSDRPSRIPERFSGSNIGNTATLTISRVEAGDEADYYCQVWDYSSDHMVFGGGTKLTVL
notes: IgG1
Kd [1]: 0.321 pM
koff [1]: 2.19e-06 s⁻¹
kon [1]: 6.83e+06 M⁻¹ s⁻¹
IC50 CD23 [2]: 430 pM
IC50 TARC [3]: 22400 pM
Kd [4]: 56.3 pM
koff [4]: 0.00201 s⁻¹
kon [4]: 3.58e+07 M⁻¹ s⁻¹
HEK-IL-13 [nM] (IC50, STAT6 reporter) [5]: 0.0899 nM
Kd [6]: 17.8 pM
koff [6]: 0.000184 s⁻¹
kon [6]: 1.03e+07 M⁻¹ s⁻¹
Kd [7]: 3.41 pM
koff [7]: 3.55e-05 s⁻¹
kon [7]: 1.04e+07 M⁻¹ s⁻¹
IC50 [8]: 9200 pM
IC50 [pM], STAT5 phosphorylation inhibition in MUTZ5 cells [9]: 0.386 pM

B4: BDG38.076 (antibody, V domains shown)
VH: B1 VH with E28A, G49A, N57A
VL: SYVLTQPPSVSVAPGETASITCGGNMIGGYLVHWYQQKPGQAPLLVIYDDVDRPARIPERFSGSNSGNTATLTISRVEAGDEADYYCQVWDHDTNHMVFGGGTKLTVL
notes: IgG1
Kd [1]: 0.00512 pM
koff [1]: 3.99e-08 s⁻¹
kon [1]: 7.8e+06 M⁻¹ s⁻¹
IC50 CD23 [2]: 308 pM
IC50 TARC [3]: 3210 pM
Kd [4]: 822 pM
koff [4]: 0.00671 s⁻¹
kon [4]: 8.16e+06 M⁻¹ s⁻¹
HEK-IL-13 [nM] (IC50, STAT6 reporter) [5]: 0.0494 nM
IC50 [8]: 5380 pM
IC50 [pM], STAT5 phosphorylation inhibition in MUTZ5 cells [9]: 30.1 pM
Kd [11]: 35.4 pM
koff [11]: 0.000231 s⁻¹
kon [11]: 6.53e+06 M⁻¹ s⁻¹
Kd [12]: 1.61 pM
koff [12]: 3.22e-05 s⁻¹
kon [12]: 2e+07 M⁻¹ s⁻¹

B7: BDG38.126 (antibody, V domains shown)
VH: B1 VH
VL: B1 VL with E16Q, T19R, R30K, S75E, A79E
notes: IgG1
IC50 CD23 [2]: 86.8 pM
IC50 TARC [3]: 2580 pM
HEK-IL-13 [nM] (IC50, STAT6 reporter) [5]: 0.079 nM
Kd [6]: 29.1 pM
koff [6]: 0.000143 s⁻¹
kon [6]: 4.92e+06 M⁻¹ s⁻¹
Kd [7]: 17.4 pM
koff [7]: 6.72e-05 s⁻¹
kon [7]: 3.87e+06 M⁻¹ s⁻¹
IC50 [8]: 5950 pM
IC50 [pM], STAT5 phosphorylation inhibition in MUTZ5 cells [9]: 0.0421 pM

B8: BDG38.096 (antibody, V domains shown)
VH: B1 VH with G49A, A88V
VL: B1 VL with T19R, A79E, H96S
notes: IgG1
Kd [1]: 18.1 pM
koff [1]: 6.14e-05 s⁻¹
kon [1]: 3.39e+06 M⁻¹ s⁻¹
IC50 CD23 [2]: 250 pM
IC50 TARC [3]: 23400 pM
Kd [4]: 44.2 pM
koff [4]: 0.00242 s⁻¹
kon [4]: 5.47e+07 M⁻¹ s⁻¹
HEK-IL-13 [nM] (IC50, STAT6 reporter) [5]: 0.15 nM
IC50 [8]: 5870 pM
Kd [11]: 25.1 pM
koff [11]: 0.000155 s⁻¹
kon [11]: 6.19e+06 M⁻¹ s⁻¹
Kd [12]: 21 pM
koff [12]: 0.000133 s⁻¹
kon [12]: 6.33e+06 M⁻¹ s⁻¹

B9: BDG38.090 (antibody, V domains shown)
VH: B1 VH with R19T, V48L, A88V, V97A
VL: B1 VL with T19R, I47V, S75E, R76D, A79E, S93Y
notes: IgG1
Kd [1]: 9.01 pM
koff [1]: 5.53e-05 s⁻¹
kon [1]: 6.14e+06 M⁻¹ s⁻¹
IC50 CD23 [2]: 6.56 pM
IC50 TARC [3]: 7.55 pM
Kd [4]: 75.2 pM
koff [4]: 0.00187 s⁻¹
kon [4]: 2.49e+07 M⁻¹ s⁻¹
HEK-IL-13 [nM] (IC50, STAT6 reporter) [5]: 0.103 nM
IC50 [8]: 7310 pM
IC50 [pM], STAT5 phosphorylation inhibition in MUTZ5 cells [9]: 43.4 pM
Kd [11]: 19.8 pM
koff [11]: 0.00013 s⁻¹
kon [11]: 6.57e+06 M⁻¹ s⁻¹
Kd [12]: 11.8 pM
koff [12]: 0.000113 s⁻¹
kon [12]: 9.57e+06 M⁻¹ s⁻¹

B11: BDG38.092 (antibody, V domains shown)
VH: B1 VH with R19T, V48L, G49A, A88V
VL: B1 VL with I3V, R76D, A79E, S93Y
notes: IgG1
Kd [1]: 4.48 pM
koff [1]: 1.72e-05 s⁻¹
kon [1]: 3.84e+06 M⁻¹ s⁻¹
IC50 CD23 [2]: 67.5 pM
IC50 TARC [3]: 5880 pM
Kd [4]: 42.8 pM
koff [4]: 0.00129 s⁻¹
kon [4]: 3.01e+07 M⁻¹ s⁻¹
HEK-IL-13 [nM] (IC50, STAT6 reporter) [5]: 0.12 nM
IC50 [8]: 7380 pM
IC50 [pM], STAT5 phosphorylation inhibition in MUTZ5 cells [9]: 33 pM
Kd [11]: 9.5 pM
koff [11]: 5.37e-05 s⁻¹
kon [11]: 5.65e+06 M⁻¹ s⁻¹
Kd [12]: 3.92 pM
koff [12]: 2.46e-05 s⁻¹
kon [12]: 6.28e+06 M⁻¹ s⁻¹

B12: BDG38.116 (antibody, V domains shown)
VH: B1 VH with R19T, G49A, A88V
VL: B1 VL with I3V, E16Q, S75E, S93Y, H96T
notes: IgG1
Kd [1]: 27.1 pM
koff [1]: 0.000386 s⁻¹
kon [1]: 1.43e+07 M⁻¹ s⁻¹
IC50 CD23 [2]: 83.7 pM
IC50 TARC [3]: 59400 pM
Kd [4]: 27 pM
koff [4]: 0.000847 s⁻¹
kon [4]: 3.14e+07 M⁻¹ s⁻¹
HEK-IL-13 [nM] (IC50, STAT6 reporter) [5]: 0.18 nM
IC50 [8]: 5120 pM
Kd [11]: 21 pM
koff [11]: 0.000116 s⁻¹
kon [11]: 5.51e+06 M⁻¹ s⁻¹
Kd [12]: 7.27 pM
koff [12]: 3.95e-05 s⁻¹
kon [12]: 5.44e+06 M⁻¹ s⁻¹

B13: BDG38.112 (antibody, V domains shown)
VH: B1 VH with V48L, D53Y
VL: B1 VL with E16Q, S75E, A79E, H96T, M97Y
notes: IgG1
IC50 CD23 [2]: 59.4 pM
IC50 TARC [3]: 104 pM
HEK-IL-13 [nM] (IC50, STAT6 reporter) [5]: 0.0367 nM
IC50 [8]: 29100 pM
IC50 [pM], STAT5 phosphorylation inhibition in MUTZ5 cells [9]: 11400 pM
Kd [11]: 17.3 pM
koff [11]: 4.02e-05 s⁻¹
kon [11]: 2.32e+06 M⁻¹ s⁻¹
Kd [12]: 258 pM
koff [12]: 0.000274 s⁻¹
kon [12]: 1.06e+06 M⁻¹ s⁻¹

B15: BDG38.137 (antibody, V domains shown)
VH: B1 VH with R16Q, G49A
VL: B1 VL with I3V, R56H, I66S, S94A, H96T
notes: IgG1
IC50 CD23 [2]: 373 pM
IC50 TARC [3]: 823 pM
HEK-IL-13 [nM] (IC50, STAT6 reporter) [5]: 0.195 nM
Kd [6]: 58 pM
koff [6]: 0.000252 s⁻¹
kon [6]: 4.34e+06 M⁻¹ s⁻¹
Kd [7]: 16.1 pM
koff [7]: 7.01e-05 s⁻¹
kon [7]: 4.36e+06 M⁻¹ s⁻¹
IC50 [8]: 10900 pM
IC50 [pM], STAT5 phosphorylation inhibition in MUTZ5 cells [9]: 1.85 pM

B16: Clone C9 (yeast-displayed scFv) (scFv)
scFv: QMQLVESGGGVVQPGRSLRLSCAASGFTFRTYGMHWVRQAPGKGLEWVAVIWYDGSNKHYADSVKGRFTITRDNSKNTLNLQMNSLRAEDTAVYYCARSPQWEWVHEAFDLWGQGTMVTVSSGGGGSGGGGSGGGGSSYVLTQPPSVSVAPGQTARITCGGNLIGSKLVHWYQQKPGQAPVLVVYDDGDRPSWIPERFSGSNSGNTATLTISRVEAGDEADYYCQVWDSSSDGVVFGGGTKLTVL
relative affinity (normalized MFI, % of positive control) [13]: > 20%
binding result [14]: binds

B17: Clone C2 (yeast-displayed scFv) (scFv)
scFv: B16 scFv with S99A, W104L, V105T, H106A, L111I, G188S, W193L
relative affinity (normalized MFI, % of positive control) [13]: > 20%
binding result [14]: binds

Further lines, results first:

binding result [10]: binds
B2: Ab clone 38.040 (yeast surface display) (scFv, V domains shown)
VH: B1 VH with E28D, G49A, D53Y, N57I
VL: SYVLTQPPSVSVAPGQTARITCGGNLIGTKLVHWYQQKPGQAPVLVVYDDSDRPSRIPERFSGSNSGNTATLTISRVEAGDEADYYCQVWDHNEDEVVFGGGTKLTVL
notes: YSD clone; also called BDG38_040

binding result [10]: binds
B3: Ab clone 38.018 (yeast surface display) (scFv, V domains shown)
VH: B1 VH with E28A, G49A, V97A, T105S
VL: B2 VL with T29S, N93S, E94S, E96H
notes: YSD clone; also called BDG38_018

binding result [10]: binds
B5: Ab clone 38.019 (yeast surface display) (scFv, V domains shown)
VH: B1 VH with E28A, G49A, D53Y, T105S
VL: B2 VL with T29S, H92Y, N93S, E94S, D95N, E96H
notes: YSD clone; also called BDG38_019

binding result [10]: binds
B6: Ab clone 38.021 (yeast surface display) (scFv, V domains shown)
VH: B1 VH with E28A, R30D, G49A, D53Y, H59V, V97A, T105S
VL: B2 VL with T29S, N93S, E94S, E96H, V97Y
notes: YSD clone; also called BDG38_021

binding result [10]: binds
B10: Ab clone 38.014 (yeast surface display) (scFv, V domains shown)
VH: B1 VH with E28A, G49A, D53Y, T105S
VL: B2 VL with T29A, N93S, E94S, E96H
notes: YSD clone; also called BDG38_014

binding result [10]: binds
B14: Ab clone 38.026 (yeast surface display) (scFv, V domains shown)
VH: B1 VH with E28A, G49A, D53Y, N57A, T105S
VL: B2 VL with R19T, T29S, S66I, N93S, E94S, E96H
notes: YSD clone; also called BDG38_026

relative affinity (normalized MFI, % of positive control) [13]: > 20%
binding result [14]: binds
B18: Clone C40 (yeast-displayed scFv) (scFv)
scFv: B16 scFv with L163N, G188S, W193R, S229T

relative affinity (normalized MFI, % of positive control) [13]: > 20%
binding result [14]: binds
B19: Clone C6 (yeast-displayed scFv) (scFv)
scFv: B16 scFv with S99A, E103M, W104L, H106A, G188S, W193R, G233H
